Reference: patent US10919943B2, “Mutant proteins enabling agrochemical control of plant gene expression” (The Regents of the University of California, priority 2016, dated 2021)

Target: T1, PYR1 (Arabidopsis thaliana, UniProt O49686)
T1 construct: expressed in transfected cells; host or cells: S. cerevisiae strain Y190
T1 sequence (O49686 1-191): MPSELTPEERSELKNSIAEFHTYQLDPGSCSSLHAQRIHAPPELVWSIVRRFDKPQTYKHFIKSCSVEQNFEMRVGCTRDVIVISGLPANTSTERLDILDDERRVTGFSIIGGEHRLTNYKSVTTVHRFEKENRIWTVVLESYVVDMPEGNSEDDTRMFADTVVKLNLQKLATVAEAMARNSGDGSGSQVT
Experiment: Yeast two hybrid of pACT-HAB1 site saturation mutants with pBD-PYR1 on 10 μM ABA, β-galactosidase staining
Format: cell-based
Set-up: key: x: Mutations in HAB1 that disrupt HAB1 interaction with PYR1
Settings: S. cerevisiae Y190, 10 μM ABA; dead = lack of detectable staining in comparison to wild type control
Outline: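 Read-out is β-galactosidase staining of chloroform-lysed Y190 colonies grown 2 days at 30 °C on SD (-Leu,-Trp) plus 10 μM ABA. Each pACT-HAB1 single-substitution mutant (N-terminally truncated by three residues) was paired with pBD-PYR1; absence of detectable staining relative to wild type scored as dead.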

Molecule	Mutations in HAB1 that disrupt HAB1 interaction with PYR1
W385E: HAB1 mutant (protein, UniProt Q9CAJ0 23-511, looked up, variant W385E) Protein phosphatase 2C 16: SPVEITQLKNVTDAADLLSDSENQSFCNGGTECTMEDVSELEEVGEQDLLKTLSDTRSGSSNVFDEDDVLSVVEDNSAVISEGLLVVDAGSELSLSNTAMEIDNGRVLATAIIVGESSIEQVPTAEVLIAGVNQDTNTSEVVIRLPDENSNHLVKGRSVYELDCIPLWGTVSIQGNRSEMEDAFAVSPHFLKLPIKMLMGDHEGMSPSLTHLTGHFFGVYDGHGGHKVADYCRDRLHFALAEEIERIKDELCKRNTGEGRQVQWDKVFTSCFLTVDGEIEGKIGRAVVGSSDKVLEAVASETVGSTAVVALVCSSHIVVSNCGDSRAVLFRGKEAMPLSVDHKPDREDEYARIENAGGKVIQEQGARVFGVLAMSRSIGDRYLKPYVIPEPEVTFMPRSREDECLILASDGLWDVMNNQEVCEIARRRILMWHKKNGAPPLAERGKGIDPACQAAADYLSMLALQKGSKDNISIIVIDLKAQRKFKTRT	x
W385F: HAB1 mutant (protein, UniProt Q9CAJ0 23-511, looked up, variant W385F) Protein phosphatase 2C 16: SPVEITQLKNVTDAADLLSDSENQSFCNGGTECTMEDVSELEEVGEQDLLKTLSDTRSGSSNVFDEDDVLSVVEDNSAVISEGLLVVDAGSELSLSNTAMEIDNGRVLATAIIVGESSIEQVPTAEVLIAGVNQDTNTSEVVIRLPDENSNHLVKGRSVYELDCIPLWGTVSIQGNRSEMEDAFAVSPHFLKLPIKMLMGDHEGMSPSLTHLTGHFFGVYDGHGGHKVADYCRDRLHFALAEEIERIKDELCKRNTGEGRQVQWDKVFTSCFLTVDGEIEGKIGRAVVGSSDKVLEAVASETVGSTAVVALVCSSHIVVSNCGDSRAVLFRGKEAMPLSVDHKPDREDEYARIENAGGKVIQFQGARVFGVLAMSRSIGDRYLKPYVIPEPEVTFMPRSREDECLILASDGLWDVMNNQEVCEIARRRILMWHKKNGAPPLAERGKGIDPACQAAADYLSMLALQKGSKDNISIIVIDLKAQRKFKTRT	x
W385G: HAB1 mutant (protein, UniProt Q9CAJ0 23-511, looked up, variant W385G) Protein phosphatase 2C 16: SPVEITQLKNVTDAADLLSDSENQSFCNGGTECTMEDVSELEEVGEQDLLKTLSDTRSGSSNVFDEDDVLSVVEDNSAVISEGLLVVDAGSELSLSNTAMEIDNGRVLATAIIVGESSIEQVPTAEVLIAGVNQDTNTSEVVIRLPDENSNHLVKGRSVYELDCIPLWGTVSIQGNRSEMEDAFAVSPHFLKLPIKMLMGDHEGMSPSLTHLTGHFFGVYDGHGGHKVADYCRDRLHFALAEEIERIKDELCKRNTGEGRQVQWDKVFTSCFLTVDGEIEGKIGRAVVGSSDKVLEAVASETVGSTAVVALVCSSHIVVSNCGDSRAVLFRGKEAMPLSVDHKPDREDEYARIENAGGKVIQGQGARVFGVLAMSRSIGDRYLKPYVIPEPEVTFMPRSREDECLILASDGLWDVMNNQEVCEIARRRILMWHKKNGAPPLAERGKGIDPACQAAADYLSMLALQKGSKDNISIIVIDLKAQRKFKTRT	x
W385H: HAB1 mutant (protein, UniProt Q9CAJ0 23-511, looked up, variant W385H) Protein phosphatase 2C 16: SPVEITQLKNVTDAADLLSDSENQSFCNGGTECTMEDVSELEEVGEQDLLKTLSDTRSGSSNVFDEDDVLSVVEDNSAVISEGLLVVDAGSELSLSNTAMEIDNGRVLATAIIVGESSIEQVPTAEVLIAGVNQDTNTSEVVIRLPDENSNHLVKGRSVYELDCIPLWGTVSIQGNRSEMEDAFAVSPHFLKLPIKMLMGDHEGMSPSLTHLTGHFFGVYDGHGGHKVADYCRDRLHFALAEEIERIKDELCKRNTGEGRQVQWDKVFTSCFLTVDGEIEGKIGRAVVGSSDKVLEAVASETVGSTAVVALVCSSHIVVSNCGDSRAVLFRGKEAMPLSVDHKPDREDEYARIENAGGKVIQHQGARVFGVLAMSRSIGDRYLKPYVIPEPEVTFMPRSREDECLILASDGLWDVMNNQEVCEIARRRILMWHKKNGAPPLAERGKGIDPACQAAADYLSMLALQKGSKDNISIIVIDLKAQRKFKTRT	x
W385I: HAB1 mutant (protein, UniProt Q9CAJ0 23-511, looked up, variant W385I) Protein phosphatase 2C 16: SPVEITQLKNVTDAADLLSDSENQSFCNGGTECTMEDVSELEEVGEQDLLKTLSDTRSGSSNVFDEDDVLSVVEDNSAVISEGLLVVDAGSELSLSNTAMEIDNGRVLATAIIVGESSIEQVPTAEVLIAGVNQDTNTSEVVIRLPDENSNHLVKGRSVYELDCIPLWGTVSIQGNRSEMEDAFAVSPHFLKLPIKMLMGDHEGMSPSLTHLTGHFFGVYDGHGGHKVADYCRDRLHFALAEEIERIKDELCKRNTGEGRQVQWDKVFTSCFLTVDGEIEGKIGRAVVGSSDKVLEAVASETVGSTAVVALVCSSHIVVSNCGDSRAVLFRGKEAMPLSVDHKPDREDEYARIENAGGKVIQIQGARVFGVLAMSRSIGDRYLKPYVIPEPEVTFMPRSREDECLILASDGLWDVMNNQEVCEIARRRILMWHKKNGAPPLAERGKGIDPACQAAADYLSMLALQKGSKDNISIIVIDLKAQRKFKTRT	x
W385K: HAB1 mutant (protein, UniProt Q9CAJ0 23-511, looked up, variant W385K) Protein phosphatase 2C 16: SPVEITQLKNVTDAADLLSDSENQSFCNGGTECTMEDVSELEEVGEQDLLKTLSDTRSGSSNVFDEDDVLSVVEDNSAVISEGLLVVDAGSELSLSNTAMEIDNGRVLATAIIVGESSIEQVPTAEVLIAGVNQDTNTSEVVIRLPDENSNHLVKGRSVYELDCIPLWGTVSIQGNRSEMEDAFAVSPHFLKLPIKMLMGDHEGMSPSLTHLTGHFFGVYDGHGGHKVADYCRDRLHFALAEEIERIKDELCKRNTGEGRQVQWDKVFTSCFLTVDGEIEGKIGRAVVGSSDKVLEAVASETVGSTAVVALVCSSHIVVSNCGDSRAVLFRGKEAMPLSVDHKPDREDEYARIENAGGKVIQKQGARVFGVLAMSRSIGDRYLKPYVIPEPEVTFMPRSREDECLILASDGLWDVMNNQEVCEIARRRILMWHKKNGAPPLAERGKGIDPACQAAADYLSMLALQKGSKDNISIIVIDLKAQRKFKTRT	x
R389A: HAB1 mutant (protein, UniProt Q9CAJ0 23-511, looked up, variant R389A) Protein phosphatase 2C 16: SPVEITQLKNVTDAADLLSDSENQSFCNGGTECTMEDVSELEEVGEQDLLKTLSDTRSGSSNVFDEDDVLSVVEDNSAVISEGLLVVDAGSELSLSNTAMEIDNGRVLATAIIVGESSIEQVPTAEVLIAGVNQDTNTSEVVIRLPDENSNHLVKGRSVYELDCIPLWGTVSIQGNRSEMEDAFAVSPHFLKLPIKMLMGDHEGMSPSLTHLTGHFFGVYDGHGGHKVADYCRDRLHFALAEEIERIKDELCKRNTGEGRQVQWDKVFTSCFLTVDGEIEGKIGRAVVGSSDKVLEAVASETVGSTAVVALVCSSHIVVSNCGDSRAVLFRGKEAMPLSVDHKPDREDEYARIENAGGKVIQWQGAAVFGVLAMSRSIGDRYLKPYVIPEPEVTFMPRSREDECLILASDGLWDVMNNQEVCEIARRRILMWHKKNGAPPLAERGKGIDPACQAAADYLSMLALQKGSKDNISIIVIDLKAQRKFKTRT	x
R389L: HAB1 mutant (protein, UniProt Q9CAJ0 23-511, looked up, variant R389L) Protein phosphatase 2C 16: SPVEITQLKNVTDAADLLSDSENQSFCNGGTECTMEDVSELEEVGEQDLLKTLSDTRSGSSNVFDEDDVLSVVEDNSAVISEGLLVVDAGSELSLSNTAMEIDNGRVLATAIIVGESSIEQVPTAEVLIAGVNQDTNTSEVVIRLPDENSNHLVKGRSVYELDCIPLWGTVSIQGNRSEMEDAFAVSPHFLKLPIKMLMGDHEGMSPSLTHLTGHFFGVYDGHGGHKVADYCRDRLHFALAEEIERIKDELCKRNTGEGRQVQWDKVFTSCFLTVDGEIEGKIGRAVVGSSDKVLEAVASETVGSTAVVALVCSSHIVVSNCGDSRAVLFRGKEAMPLSVDHKPDREDEYARIENAGGKVIQWQGALVFGVLAMSRSIGDRYLKPYVIPEPEVTFMPRSREDECLILASDGLWDVMNNQEVCEIARRRILMWHKKNGAPPLAERGKGIDPACQAAADYLSMLALQKGSKDNISIIVIDLKAQRKFKTRT	x
R389M: HAB1 mutant (protein, UniProt Q9CAJ0 23-511, looked up, variant R389M) Protein phosphatase 2C 16: SPVEITQLKNVTDAADLLSDSENQSFCNGGTECTMEDVSELEEVGEQDLLKTLSDTRSGSSNVFDEDDVLSVVEDNSAVISEGLLVVDAGSELSLSNTAMEIDNGRVLATAIIVGESSIEQVPTAEVLIAGVNQDTNTSEVVIRLPDENSNHLVKGRSVYELDCIPLWGTVSIQGNRSEMEDAFAVSPHFLKLPIKMLMGDHEGMSPSLTHLTGHFFGVYDGHGGHKVADYCRDRLHFALAEEIERIKDELCKRNTGEGRQVQWDKVFTSCFLTVDGEIEGKIGRAVVGSSDKVLEAVASETVGSTAVVALVCSSHIVVSNCGDSRAVLFRGKEAMPLSVDHKPDREDEYARIENAGGKVIQWQGAMVFGVLAMSRSIGDRYLKPYVIPEPEVTFMPRSREDECLILASDGLWDVMNNQEVCEIARRRILMWHKKNGAPPLAERGKGIDPACQAAADYLSMLALQKGSKDNISIIVIDLKAQRKFKTRT	x
R389P: HAB1 mutant (protein, UniProt Q9CAJ0 23-511, looked up, variant R389P) Protein phosphatase 2C 16: SPVEITQLKNVTDAADLLSDSENQSFCNGGTECTMEDVSELEEVGEQDLLKTLSDTRSGSSNVFDEDDVLSVVEDNSAVISEGLLVVDAGSELSLSNTAMEIDNGRVLATAIIVGESSIEQVPTAEVLIAGVNQDTNTSEVVIRLPDENSNHLVKGRSVYELDCIPLWGTVSIQGNRSEMEDAFAVSPHFLKLPIKMLMGDHEGMSPSLTHLTGHFFGVYDGHGGHKVADYCRDRLHFALAEEIERIKDELCKRNTGEGRQVQWDKVFTSCFLTVDGEIEGKIGRAVVGSSDKVLEAVASETVGSTAVVALVCSSHIVVSNCGDSRAVLFRGKEAMPLSVDHKPDREDEYARIENAGGKVIQWQGAPVFGVLAMSRSIGDRYLKPYVIPEPEVTFMPRSREDECLILASDGLWDVMNNQEVCEIARRRILMWHKKNGAPPLAERGKGIDPACQAAADYLSMLALQKGSKDNISIIVIDLKAQRKFKTRT	x
